In paper PMC8486322 (Cell, 2019):

Target: eRF3 fused with maltose binding protein (MBP-eRF3) ( (the printed NM_002094.3 is …, UniProt P15170-3 1-637))
Assay: pull-down

binding result: binds
B1: SFL fused with glutathione S-transferase (GST-SFL) (natural protein)
chain: not shown
